Where no end group is shown, it is not given here. [ ]: non-standard residue; d: D form. fluorescein = fluorescein label on the N-terminus; pT = C[C@@H](OP(=O)(O)O)[C@H](N)C(=O)O; pS = N[C@@H](COP(=O)(O)O)C(=O)O; FAM = fluorescein
B1: ERα C-terminal phospholigand (ERα-ctp, 2) (peptide, UniProt P03372 581-595, looked up)
peptide: KYYITGEAEGFPA[pT]V
B2: 14-3-3σ, full-length, recombinant (natural protein)
chain: MERASLIQKAKLAEQAERYEDMAAFMKGAVEKGEELSCEERNLLSVAYKNVVGGQRAAWRVLSSIEQKSNEEGSEEKGPEVREYREKVETELQGVCDTVLGLLDSHLIKEAGDAESRVFYLKMKGDYYRYLAEVATGDDKKRIIDSARSAYQEAMDISKKEMPPTNPIRLGLALNFSVFHYEIANSPEEAISLAKTTFDEAMADLHTLSEDSYKDSTLIMQLLRDNLTLWTADNAGEEGGEAPQEPQS
B3: p27Kip1-ctp, fluorescein-labeled hexaphosphopeptide ALRRQpT-COOH (peptide)
peptide: fluorescein-ALRRQ[pT]-OH
B4: GpIBα-ctp, fluorescein-labeled hexaphosphopeptide YSGHpSL-COOH (peptide)
peptide: fluorescein-YSGH[pS]L-OH
B5: GPR15-ctp, fluorescein-labeled hexaphosphopeptide KRSVpSL-COOH (peptide)
peptide: fluorescein-KRSV[pS]L-OH
B6: IRL9-ctp, fluorescein-labeled hexaphosphopeptide ARSWpTF-COOH (peptide)
peptide: fluorescein-ARSW[pT]F-OH
B7: Task3-ctp, fluorescein-labeled hexaphosphopeptide RKKRpSV-COOH (peptide)
peptide: fluorescein-RKKR[pS]V-OH
B8: N-FAM-2 variant with C-terminal residue N (peptide, UniProt P03372 581-595, looked up)
peptide: {FAM}-KYYITGEAEGFPA[pT]N
B9: N-FAM-2 variant with C-terminal residue G (peptide, UniProt P03372 581-595, looked up)
peptide: {FAM}-KYYITGEAEGFPA[pT]G
B10: N-FAM-2 variant with C-terminal residue D (peptide, UniProt P03372 581-595, looked up)
peptide: {FAM}-KYYITGEAEGFPA[pT]D
B11: N-FAM-2 variant with C-terminal residue F (peptide, UniProt P03372 581-595, looked up)
peptide: {FAM}-KYYITGEAEGFPA[pT]F
B12: N-FAM-2 variant with C-terminal residue T (peptide, UniProt P03372 581-595, looked up)
peptide: {FAM}-KYYITGEAEGFPA[pT]T
B13: N-FAM-2 variant with C-terminal residue A (peptide, UniProt P03372 581-595, looked up)
peptide: {FAM}-KYYITGEAEGFPA[pT]A
B14: fluorescein-labeled N-FAM-ERα-ctp (N-FAM-2) (peptide, UniProt P03372 581-595, looked up)
peptide: {FAM}-KYYITGEAEGFPA[pT]V
B15: N-FAM-2 variant with C-terminal residue L (peptide, UniProt P03372 581-595, looked up)
peptide: {FAM}-KYYITGEAEGFPA[pT]L
B16: N-FAM-2 variant with C-terminal residue S (peptide, UniProt P03372 581-595, looked up)
peptide: {FAM}-KYYITGEAEGFPA[pT]S
B17: N-FAM-2 variant with C-terminal residue I (peptide, UniProt P03372 581-595, looked up)
peptide: {FAM}-KYYITGEAEGFPA[pT]I

Molecular target: T1, 14-3-3σ, full-length, recombinant (human, UniProt P31947 1-248)
T1 sequence (looked up): B2 chain
Assay: ITC

Binder | Kd [µM]
B1 | 0.75

Molecular target: T1, 14-3-3σ, full-length, recombinant
Assay: ITC
Remark: another data set of the same source

Binder | Kd [µM]
B1 | 0.02

Molecular target: fluorescein-labeled Nup160-ctp (3) (human)
Assay: fluorescence polarisation

Binder | Kd [µM]
B2 | 5.34

Molecular target: fluorescein-labeled TNFRSF19-ctp (4) (human)
Assay: fluorescence polarisation

Binder | Kd [µM]
B2 | 538

Molecular target: T1, 14-3-3σ, full-length, recombinant
Assay: fluorescence polarisation

Binder | Kd [µM]
B3 | 82.2
B4 | 22.5
B5 | 7.36
B6 | 3.16
B7 | 3.15

Molecular target: T1, 14-3-3σ, full-length, recombinant
Assay: fluorescence polarisation
Remark: another data set of the same source

Binder | Kd [µM]
B8 | 59.5
B9 | 144
B10 | 173
B11 | 10.5
B12 | 50
B13 | 19.9
B14 | 3.61
B15 | 11
B16 | 79.8
B17 | 3.03

Molecular target: fluorescein-labeled Nup160-ctp (3) (human)
Assay: fluorescence polarisation
Remark: another data set of the same source

Binder | Kd [µM]
B2 | 0.25

Molecular target: fluorescein-labeled TNFRSF19-ctp (4) (human)
Assay: fluorescence polarisation
Remark: another data set of the same source

Binder | Kd [µM]
B2 | 38

Molecular target: T1, 14-3-3σ, full-length, recombinant
Assay: fluorescence polarisation
Remark: another data set of the same source

Binder | Kd [µM]
B3 | 39.9
B4 | 1.69
B5 | 1.1
B6 | 1.54
B7 | 0.1

Molecular target: T1, 14-3-3σ, full-length, recombinant
Assay: fluorescence polarisation
Remark: another data set of the same source

Binder | Kd [µM]
B8 | 32.4
B9 | 36.5
B10 | 48.2
B11 | 4.03
B12 | 1.32
B13 | 0.7
B14 | 0.05
B15 | 0.17
B16 | 3.54
B17 | 0.06

From article PMC7169973 (ACS chemical biology, 2020)
